Substrate in data set [1]: CC(=O)N[C@@H]1[C@@H](O[C@H](C)C(=O)O)[C@H](O)[C@@H](CO)O[C@H]1O
In words: purified protein. The class given is binding, Tannerella forsythia. As to conditions: active site, very similar to MurK MurNAc site; T69, R132, A133 differ.

Substrate in data set [2]: CC(=O)N[C@@H]1[C@@H](O[C@H](C)C(=O)O)[C@H](O)[C@@H](CO)O[C@H]1O
The data set can be described thus: purified protein. The arrangement: species or system Tannerella forsythia. As to conditions: active site, MurNAc-binding site; hydrogen bonds to G67, D95, N119, D141; lactyl ether at S133, P134, L135.

B1: K1058 (Tannerella forsythia 92A2) (protein)
chain: MKLIAESGSTKTEWSLVEGEHLIQRVFTEGLNPFFQTRREISRSIRLGLPDSFFKRKLEQVFFYGAGCTSAEKKSVVEASLVAQFKTPAYVESDLLAAARGLFQHDSGIACILGTGSNSCFYDGHVIVKNVRAGGYILGDEGSGAALGKQFLSDVLKKLAPQVLIDDFFEKYDLTPHDVMDVVYNRPFPNRFLAEQSCFLADYLRLDYVKGLLLSNLRSFFLRNVMQYDYLNYPIRFVGSVAYNYADLLHQVGKEFGVELSVVEETPMGGLIKYHAFPPDDPES
notes: recombinant His6-tagged protein expressed in E. coli
B1: in the data set “purified protein [1]”, the Michaelis constant (Km) stood at 28 ± 10 µM, the turnover number (kcat) came out at 0.18 ± 0.01 s⁻¹ and the kcat/Km is 6400 ± 2900 M⁻¹ s⁻¹.

B2: MurK (murein sugar kinase) (Tannerella forsythia 92A2) (protein)
chain: MILIADSGSTKTHWNVLDRGQVVGEIFTKGMNPFFQTPEEMGREIERTLLPQLNSNRFCEVHFFGAGCIPEKVPIVRNVLKGCLDVSSLIEVDTDMLAAAKASCGRSPGIVCIMGTGSNSCFYDGEKITANVSPLGFILGDEGSGAVLGKLLIGDLLKNQMGEELKEKFLRQYELTPANIIERVYRQPFPNRFLAGISPFLAENIEHPAIHSLVLNAFKSFLTRNVMQFDYTRYKAHFIGSVAYYYKDILEEAAAATGIRTGTIVRNPMEGLRTYYSTVAETV
notes: as for B1
As to B2, in “purified protein [2]”, the Km stood at 180 ± 40 µM, the catalytic constant (kcat) stood at 42 ± 4.2 s⁻¹ and the kcat/Km came out at 230000 ± 56000 M⁻¹ s⁻¹.

The values are drawn from article PMC10465942, “N-acetylmuramic acid recognition by MurK kinase from the MurNAc auxotrophic oral pathogen Tannerella forsythia” (The Journal of Biological Chemistry, 2023).
